# From US9958461B2, “Detection of protein to protein interactions” (THE GOVERNING COUNCIL OF THE UNIVERSITY OF TORONTO, priority 2013, dated 2018)
# Tests used:
# EGFR-Wt [1] = biological target: T1, EGFR-Wt (Homo sapiens, UniProt P00533); test: MaMTH EGFR-interactor screen, lentiviral preys against EGFR-wildtype bait (interaction score); format: cell-based; settings: MaMTH interaction score of prey with EGFR-Wt bait, mean
# T1 construct: with the advantage of testing full-length integral membrane proteins; (GGGGS)2 linker-Cub (human ubiquitin aa 35-76)-GAL4(1-147)-mNFkB(364-550) (C); expressed in transfected cells
# Method in brief: (§1)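 5×GAL4UAS-luciferase HEK293T reporter cells were lentivirally infected with preys (MOI ~0.3-0.4) and puromycin-selected ≥48 h. They were then transfected in triplicate with the EGFR bait, and luciferase was read 24 h later. Score is fold-change over averaged negative-control preys; >1 denotes interaction.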
# EGFR-Wt [2] = test: as above; format: cell-based, human; settings: ratio of EGFR-Wt mean to EGFR-L858R mean interaction score
# Method in brief: as §1
# EGFR-L858R = biological target: T2, EGFR-L858R (Homo sapiens, UniProt P00533, L858R); test: MaMTH EGFR-interactor screen, lentiviral preys against EGFR-L858R bait (interaction score); format: cell-based; settings: MaMTH interaction score of prey with EGFR-L858R bait
# T2 construct: with the advantage of testing full-length integral membrane proteins; (GGGGS)2 linker-Cub (human ubiquitin aa 35-76)-GAL4(1-147)-mNFkB(364-550) (C); expressed in transfected cells
# Method in brief: as §1
Molecule,EGFR-Wt mean (EGFR-Wt [1]),Wt/L858R (EGFR-Wt [2]),EGFR-L858R mean (EGFR-L858R)
"CAV2 (protein, UniProt P51636 1-162, looked up) Caveolin-2: MGLETEKADVQLFMDDDSYSHHSGLEYADPEKFADSDQDRDPHRLNSHLKLGFEDVIAEPVTTHSFDKVWICSHALFEISKYVMYKFLTVFLAIPLAFIAGILFATLSCLHIWILMPFVKTCLMVLPSVQTIWKSVTDVIIAPLCTSVGRCFSSVSLQLSQD",2.57,0.39,6.58
"LCP2 (protein, UniProt Q13094 1-533, looked up) Lymphocyte cytosolic protein 2: MALRNVPFRSEVLGWDPDSLADYFKKLNYKDCEKAVKKYHIDGARFLNLTENDIQKFPKLRVPILSKLSQEINKNEERRSIFTRKPQVPRFPEETESHEEDNGGWSSFEEDDYESPNDDQDGEDDGDYESPNEEEEAPVEDDADYEPPPSNDEEALQNSILPAKPFPNSNSMYIDRPPSGKTPQQPPVPPQRPMAALPPPPAGRNHSPLPPPQTNHEEPSRSRNHKTAKLPAPSIDRSTKPPLDRSLAPFDREPFTLGKKPPFSDKPSIPAGRSLGEHLPKIQKPPLPPTTERHERSSPLPGKKPPVPKHGWGPDRRENDEDDVHQRPLPQPALLPMSSNTFPSRSTKPSPMNPLPSSHMPGAFSESNSSFPQSASLPPYFSQGPSNRPPIRAEGRNFPLPLPNKPRPPSPAEEENSLNEEWYVSYITRPEAEAALRKINQDGTFLVRDSSKKTTTNPYVLMVLYKDKVYNIQIRYQKESQVYLLGTGLRGKEDFLSVSDIIDYFRKMPLLLIDGKNRGSRYQCTLTHAAGYP",2.71,0.43,6.29
"PTPN22 (protein, UniProt Q9Y2R2 1-807, looked up) Tyrosine-protein phosphatase …: MDQREILQKFLDEAQSKKITKEEFANEFLKLKRQSTKYKADKTYPTTVAEKPKNIKKNRYKDILPYDYSRVELSLITSDEDSSYINANFIKGVYGPKAYIATQGPLSTTLLDFWRMIWEYSVLIIVMACMEYEMGKKKCERYWAEPGEMQLEFGPFSVSCEAEKRKSDYIIRTLKVKFNSETRTIYQFHYKNWPDHDVPSSIDPILELIWDVRCYQEDDSVPICIHCSAGCGRTGVICAIDYTWMLLKDGIIPENFSVFSLIREMRTQRPSLVQTQEQYELVYNAVLELFKRQMDVIRDKHSGTESQAKHCIPEKNHTLQADSYSPNLPKSTTKAAKMMNQQRTKMEIKESSSFDFRTSEISAKEELVLHPAKSSTSFDFLELNYSFDKNADTTMKWQTKAFPIVGEPLQKHQSLDLGSLLFEGCSNSKPVNAAGRYFNSKVPITRTKSTPFELIQQRETKEVDSKENFSYLESQPHDSCFVEMQAQKVMHVSSAELNYSLPYDSKHQIRNASNVKHHDSSALGVYSYIPLVENPYFSSWPPSGTSSKMSLDLPEKQDGTVFPSSLLPTSSTSLFSYYNSHDSLSLNSPTNISSLLNQESAVLATAPRIDDEIPPPLPVRTPESFIVVEEAGEFSPNVPKSLSSAVKVKIGTSLEWGGTSEPKKFDDSVILRPSKSVKLRSPKSELHQDRSSPPPPLPERTLESFFLADEDCMQAQSIETYSTSYPDTMENSTSSKQTLKTPGKSFTRSKSLKILRNMKKSICNSCPPNKPAESVQSNNSSSFLNFGFANRFSKPKGPRNPPPTWNI",2.99,8.23,0.36
"SLA (protein, UniProt Q13239 2-276, looked up) Src-like-adapter: GNSMKSTPAPAERPLPNPEGLDSDFLAVLSDYPSPDISPPIFRRGEKLRVISDEGGWWKAISLSTGRESYIPGICVARVYHGWLFEGLGRDKAEELLQLPDTKVGSFMIRESETKKGFYSLSVRHRQVKHYRIFRLPNNWYYISPRLTFQCLEDLVNHYSEVADGLCCVLTTPCLTQSTAAPAVRASSSPVTLRQKTVDWRRVSRLQEDPEGTENPLGVDESLFSYGLRESIASYLSLTSEDNTSFDRKKKSISLMYGGSKRKSSFFSSPPYFED",2.78,2.40,1.16
"JUP (protein, UniProt P14923 1-745, looked up) Junction plakoglobin: MEVMNLMEQPIKVTEWQQTYTYDSGIHSGANTCVPSVSSKGIMEEDEACGRQYTLKKTTTYTQGVPPSQGDLEYQMSTTARAKRVREAMCPGVSGEDSSLLLATQVEGQATNLQRLAEPSQLLKSAIVHLINYQDDAELATRALPELTKLLNDEDPVVVTKAAMIVNQLSKKEASRRALMGSPQLVAAVVRTMQNTSDLDTARCTTSILHNLSHHREGLLAIFKSGGIPALVRMLSSPVESVLFYAITTLHNLLLYQEGAKMAVRLADGLQKMVPLLNKNNPKFLAITTDCLQLLAYGNQESKLIILANGGPQALVQIMRNYSYEKLLWTTSRVLKVLSVCPSNKPAIVEAGGMQALGKHLTSNSPRLVQNCLWTLRNLSDVATKQEGLESVLKILVNQLSVDDVNVLTCATGTLSNLTCNNSKNKTLVTQNSGVEALIHAILRAGDKDDITEPAVCALRHLTSRHPEAEMAQNSVRLNYGIPAIVKLLNQPNQWPLVKATIGLIRNLALCPANHAPLQEAAVIPRLVQLLVKAHQDAQRHVAAGTQQPYTDGVRMEEIVEGCTGALHILARDPMNRMEIFRLNTIPLFVQLLYSSVENIQRVAAGVLCELAQDKEAADAIDAEGASAPLMELLHSRNEGTATYAAAVLFRISEDKNPDYRKRVSVELTNSLFKHDPAAWEAAQSMIPINEPYGDDMDATYRPMYSSDVPLDPLEMHMDMDGDYPIDTYSDGLRPPYPTADHMLA",0.98,0.39,2.51
"GAB1 (protein, UniProt Q13480 2-694, looked up) GRB2-associated-binding …: SGGEVVCSGWLRKSPPEKKLKRYAWKRRWFVLRSGRLTGDPDVLEYYKNDHAKKPIRIIDLNLCQQVDAGLTFNKKEFENSYIFDINTIDRIFYLVADSEEEMNKWVRCICDICGFNPTEEDPVKPPGSSLQAPADLPLAINTAPPSTQADSSSATLPPPYQLINVPPHLETLGIQEDPQDYLLLINCQSKKPEPTRTHADSAKSTSSETDCNDNVPSHKNPASSQSKHGMNGFFQQQMIYDSPPSRAPSASVDSSLYNLPRSYSHDVLPKVSPSSTEADGELYVFNTPSGTSSVETQMRHVSISYDIPPTPGNTYQIPRTFPEGTLGQTSKLDTIPDIPPPRPPKPHPAHDRSPVETCSIPRTASDTDSSYCIPTAGMSPSRSNTISTVDLNKLRKDASSQDCYDIPRAFPSDRSSSLEGFHNHFKVKNVLTVGSVSSEELDENYVPMNPNSPPRQHSSSFTEPIQEANYVPMTPGTFDFSSFGMQVPPPAHMGFRSSPKTPPRRPVPVADCEPPPVDRNLKPDRKVKPAPLEIKPLPEWEELQAPVRSPITRSFARDSSRFPMSPRPDSVHSTTSSSDSHDSEENYVPMNPNLSSEDPNLFGSNSLDGGSSPMIKPKGDKQVEYLDLDLDSGKSTPPRKQKSSGSGSSVADERVDYVVVDQQKTLALKSTREAWTDGRQSTESETPAKSVK",0.93,0.41,2.30
"PRKCZ (protein, UniProt Q05513 1-592, looked up) Protein kinase C zeta type: MPSRTGPKMEGSGGRVRLKAHYGGDIFITSVDAATTFEELCEEVRDMCRLHQQHPLTLKWVDSEGDPCTVSSQMELEEAFRLARQCRDEGLIIHVFPSTPEQPGLPCPGEDKSIYRRGARRWRKLYRANGHLFQAKRFNRRAYCGQCSERIWGLARQGYRCINCKLLVHKRCHGLVPLTCRKHMDSVMPSQEPPVDDKNEDADLPSEETDGIAYISSSRKHDSIKDDSEDLKPVIDGMDGIKISQGLGLQDFDLIRVIGRGSYAKVLLVRLKKNDQIYAMKVVKKELVHDDEDIDWVQTEKHVFEQASSNPFLVGLHSCFQTTSRLFLVIEYVNGGDLMFHMQRQRKLPEEHARFYAAEICIALNFLHERGIIYRDLKLDNVLLDADGHIKLTDYGMCKEGLGPGDTTSTFCGTPNYIAPEILRGEEYGFSVDWWALGVLMFEMMAGRSPFDIITDNPDMNTEDYLFQVILEKPIRIPRFLSVKASHVLKGFLNKDPKERLGCRPQTGFSDIKSHAFFRSIDWDLLEKKQALPPFQPQITDDYGLDNFDTQFTSEPVQLTPDDEDAIKRIDQSEFEGFEYINPLLLSTEESV",2.49,2.79,0.89
"DOK1 (protein, UniProt Q99704 1-481, looked up) Docking protein 1: MDGAVMEGPLFLQSQRFGTKRWRKTWAVLYPASPHGVARLEFFDHKGSSSGGGRGSSRRLDCKVIRLAECVSVAPVTVETPPEPGATAFRLDTAQRSHLLAADAPSSAAWVQTLCRNAFPKGSWTLAPTDNPPKLSALEMLENSLYSPTWEGSQFWVTVQRTEAAERCGLHGSYVLRVEAERLTLLTVGAQSQILEPLLSWPYTLLRRYGRDKVMFSFEAGRRCPSGPGTFTFQTAQGNDIFQAVETAIHRQKAQGKAGQGHDVLRADSHEGEVAEGKLPSPPGPQELLDSPPALYAEPLDSLRIAPCPSQDSLYSDPLDSTSAQAGEGVQRKKPLYWDLYEHAQQQLLKAKLTDPKEDPIYDEPEGLAPVPPQGLYDLPREPKDAWWCQARVKEEGYELPYNPATDDYAVPPPRSTKPLLAPKPQGPAFPEPGTATGSGIKSHNSALYSQVQKSGASGSWDCGLSRVGTDKTGVKSEGST",5.17,0.39,13.10
